Assay results as given in the supplement of paper PMC9112550, “Optimization of the antimicrobial peptide Bac7 by deep mutational scanning” (BMC Biology, 2022).

Tested on: Escherichia coli TOP10
Experiment: shrunken log2 fold change of peptide-encoding DNA abundance (4.5 h post-induction vs induction); higher = less antimicrobial activity (less host growth inhibition)
Settings: time post-induction: 4.5 h; library: site-saturation at positions 5, 18, 19, 20
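Note: peptides expressed intracellularly from a pBAD plasmid library in pooled LB shake-flask culture, induced with 0.3% L-arabinose, DNA abundance read by NGS, three biological replicates, DESeq2 with apeglm shrinkage.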

Sequence | shrunken log2 fold change
RRIRQRPPRLPRPRPRPFTIPRP | 0.0944
RRIRFRPPRLPRPRPRPAYWPRP | 0.21
RRIRQRPPRLPRPRPRPAMAPRP | -0.134
RRIRDRPPRLPRPRPRPNDIPRP | -0.211
RRIRWRPPRLPRPRPRPKMCPRP | -0.0087
RRIRTRPPRLPRPRPRPSWVPRP | -0.165
RRIRARPPRLPRPRPRPMDPPRP | 0.0606
RRIRARPPRLPRPRPRPLEVPRP | 0.676
RRIRYRPPRLPRPRPRPEIHPRP | -0.224
RRIRVRPPRLPRPRPRPGWDPRP | 0.243
RRIRERPPRLPRPRPRPVRAPRP | 0.287
RRIRQRPPRLPRPRPRPIKIPRP | -0.0595
RRIRNRPPRLPRPRPRPGHFPRP | 0.0512
RRIRRRPPRLPRPRPRPGDPPRP | 0.593
RRIRPRPPRLPRPRPRPYFPPRP | -0.26
RRIRFRPPRLPRPRPRPVYTPRP | -1.09
RRIRFRPPRLPRPRPRPMDTPRP | -0.165
RRIRARPPRLPRPRPRPGQGPRP | 0.204
RRIRGRPPRLPRPRPRPVVDPRP | 0.873
RRIRMRPPRLPRPRPRPKLEPRP | 1.14
RRIRLRPPRLPRPRPRPVKTPRP | -0.0565
RRIRSRPPRLPRPRPRPVKTPRP | -0.0806
RRIRDRPPRLPRPRPRPYSTPRP | -0.0663
RRIRERPPRLPRPRPRPWRWPRP | 0.0174
RRIRQRPPRLPRPRPRPCMKPRP | -0.0118

Sequence | shrunken log2 fold change
RRIRWRPPRLPRPRPRPKDLPRP | -0.0295
RRIRMRPPRLPRPRPRPWMCPRP | -0.01
RRIRWRPPRLPRPRPRPKATPRP | 0.264
RRIRDRPPRLPRPRPRPFEDPRP | 0.265
RRIRRRPPRLPRPRPRPFPKPRP | 0.0876
RRIRIRPPRLPRPRPRPNLTPRP | 0.0979
RRIRNRPPRLPRPRPRPLMWPRP | -0.175
RRIRMRPPRLPRPRPRPLYAPRP | 0.063
RRIRVRPPRLPRPRPRPVDHPRP | -0.464
RRIRYRPPRLPRPRPRPQLCPRP | -0.0902
RRIRQRPPRLPRPRPRPMHDPRP | -0.0216
RRIRPRPPRLPRPRPRPVNTPRP | -0.634
RRIRWRPPRLPRPRPRPNHCPRP | -0.0525
RRIRPRPPRLPRPRPRPVNCPRP | -0.118
RRIRYRPPRLPRPRPRPRSWPRP | -0.0913
RRIRARPPRLPRPRPRPTDIPRP | 0.224
RRIRWRPPRLPRPRPRPQTYPRP | -1.17
RRIRYRPPRLPRPRPRPFRVPRP | -0.0371
RRIRMRPPRLPRPRPRPICKPRP | -0.0206
RRIRTRPPRLPRPRPRPEVDPRP | 0.036
RRIRWRPPRLPRPRPRPWRHPRP | -0.141
RRIRKRPPRLPRPRPRPDWCPRP | 0.292
RRIRWRPPRLPRPRPRPFFEPRP | -0.0187
RRIRERPPRLPRPRPRPHDIPRP | -0.0102
RRIRYRPPRLPRPRPRPPFSPRP | -0.285

Sequence | shrunken log2 fold change
RRIRGRPPRLPRPRPRPGLCPRP | 0.957
RRIRARPPRLPRPRPRPHMRPRP | 0.669
RRIRKRPPRLPRPRPRPPHQPRP | 0.61
RRIRPRPPRLPRPRPRPAPMPRP | 0.284
RRIRRRPPRLPRPRPRPHKTPRP | 0.107
RRIRQRPPRLPRPRPRPICLPRP | 0.144
RRIRIRPPRLPRPRPRPTYHPRP | -0.949
RRIRKRPPRLPRPRPRPNMNPRP | 0.394
RRIRRRPPRLPRPRPRPKWEPRP | 0.364
RRIRLRPPRLPRPRPRPNCDPRP | -0.00298
RRIRKRPPRLPRPRPRPYTYPRP | -0.119
RRIRFRPPRLPRPRPRPYRIPRP | -0.34
RRIRLRPPRLPRPRPRPHEFPRP | -0.0833
RRIRPRPPRLPRPRPRPTHTPRP | 0.13
RRIRNRPPRLPRPRPRPPWLPRP | 0.482
RRIRYRPPRLPRPRPRPPSCPRP | -0.00175
RRIRVRPPRLPRPRPRPFFMPRP | -0.339
RRIRLRPPRLPRPRPRPRQNPRP | 0.108
RRIRIRPPRLPRPRPRPMYIPRP | -0.0364
RRIRSRPPRLPRPRPRPCNCPRP | 0.0508
RRIRKRPPRLPRPRPRPRLMPRP | 0.989
RRIRMRPPRLPRPRPRPDVNPRP | 0.0361
RRIRKRPPRLPRPRPRPVFPPRP | 0.0527
RRIRPRPPRLPRPRPRPATLPRP | 0.223
RRIRERPPRLPRPRPRPGAQPRP | -0.23
